Experimental data reported in the DeepSol protein solubility set.

experiment: soluble on expression in E. coli; label from the status in PepcDB or PDB records

Sequence | soluble on expression in E. coli
MTPWLGLIVLLGSWSLGDWGAEACTCSPSHPQDAFCNSDIVIRAKVVGKKLVKEGPFGTLVYTIKQMKMYRGFTKMPHVQYIHTEASESLCGLKLEVNKYQYLLTGRVYDGKMYTGLCNFVERWDQLTLSQRKGLNYRYHLGCNCKIKSCYYLPCFVTSKNECLWTDMLSNFGYPGYQSKHYACIRQKGGYCSWYRGWAPPDKSIINATDP | not soluble
MTQAADILIAGGGLNGPALALALARNGFSVTVVDGRPAPQRAEPGFDGRAYALALASKRLLAALGLWDGLASQAQPILRVVTADGTTAGGPSPFVLAFDHAEIEEGPMGYLLEDRFLYAAFLAALEAEPRIRLVSGTTVEAQEVGPQGVTVTLSTGAQLSGRLLVGCDGRQSGTARRAGIRRSGWGYGQTALVTAIEHERPHEGTAWQYFLPGGPLAILPLPGGHRSSIVWSESDAAAAGIQRLPDADYLGALRPRFGDFLGSIRLAGDRFTYPLSLSLAHSFVAPRVALVGDAAHGVHPIAGQGLNLGLRDVAALAEVLTLAARRGEDVGSPLVLDRYQQWRRFDATALALGMDMVNRLFSNDNPVMRAGRDLSMGIVNALPGLRRGFIRQAAGLSGDLPRLLQGRPILEHHHHHH | not soluble
MTQAEIKLCSLLLQEHFGEIVEKIGVHLIRTGSQPLRVIAHDTGTSLDQVKKALCVLVQHNLVSYQVHKRGVVEYEAQCSRVLRMLRYPRYIYTTKTLYSDTGELIVEELLLNGKLTMSAVVKKVADRLTETMEDGKTMDYAEVSNTFVRLADTHFVQRCPSVPTTENSDPGPPPPAPTLVINEKDMYLVPKLSLIGKGKRRRSSDEDAAGEPKAKRPKYTTDNKEPIPDDGIYWQANLDRFHQHFRDQAIVSAVANRMDQTSSEIVRTMLRMSEITTSSSAPFTQPLSSNEIFRSLPVGYNISKQVLDQYLTLLADDPLEFVGKSGDSGGGMYVINLHKALASLATATLKSVVQERFGSRCARIFRLVLQKKHIEQKQVEDFAMIPAKEAKDMLYKMLSENFMSLQVGCQ | not soluble
MTQFNGKKIQEKIVSYCIDEVELDLITASDIAFHMTDWLNNLEDLVAFYKTPDEYSPEQLNNILMGFLYHVPNHTIAAAKLLLDVQVTDVFGVGVIADNKDE | not soluble
MTQHPFISRVAVRNYKSIGYCDVNLRPLTYLVGHNGAGKSNFMDALHFVCDALSYSLDSALNERGGINEVRRRSGGHPTHFALRVEFVMQSGQAGRYGFVIGALKNGGYEVQREECVVAGIGKGPFFRIEKGKLRDSSETTFPSVTADRLALVAASGLTAFRPVFDALTAMGFYNLNPKLMRELQKPQDGRLLRPAGENIASVIGHLEKVAPAQMALIQEYLHSVAPMVHGVERKPIGPMETLEFRQDMAGSKHPWRFLAQNMSDGTLRALGVLSALLQGNVDYSPTLIGIEEPETALHPAASAALREALVRASETTQVLVTSHSPDLLDDHSIDADAVLAVVSEAGETKVAPLDEGSRQVMRDHLFSAGELLRMNQLAPDRASLEQQDKAASGDLFGETESVLEHHHHHH | soluble
MTQITKFHGVFPPVPTIVNAQGELDKVGMATLLDHLIASKVNGVLLLGSGGEFCHMTNALRLETAEFCVRHINRRIPVLLGISSTSTQEVIEYGQHADRLEVDAVLVLNPYYARLTDEYIYHHFKTVANNIKSPVILYNFPALTGQDLSVDLITRLAQDHPNIIGIKDTVDNISHIREIINNVRPVRPDFVIFSGYDEYMMDTLILGGNGGIPATANFAPQLTCGIYRAWCEKEYETMFGLQRRLSALSTIYSLDSPFFGIIKKAIQLSGVDISTHVMPPVLPANEEHISNLKQILQRAGL | not soluble
MTQIVVGENEHIESALRRFKREVSKAGIFQDMRKHRHFETPIEKSKRKKLALHKQSKRRFRTLEHHHHHH | not soluble
MTQKLHIKTWGCQMNEYDSSKMADLLLSTHGLELTEAPEEADVLLLNTCSIREKAQEKVFHQLGRWKELKKNNPNLVIGVGGCVASQEGEHIRHRAPYVDIIFGPQTLHRLPEMINQIRGGKSSVVDVSFPEIEKFDRLPEPRAEGPTAFVSIMEGCNKYCTFCVVPYTRGEEVSRPVDDVLFEIAQLAEQGVREVNLLGQNVNAYRGPTHDGQICSFAELLRLVASIDGIDRLRFTTSHPIEFTDDIIDVYRDTPELVSFLHLPVQAGSDRVLTMMKRAHTALEYKSIIRKLRAVRPDIQISSDFIVGFPGETAEDFEQTMNLIAQVNFDMSFSFVYSARPGTPAADMPDDVTEDEKKQRLYVLQERINQQAAQFSRRMLGTEQRVLVEGPSKKDIMELTGRTETNRIVNFQGSPEMIGKFVDVKITDVYTNSLRGEVVRTEDEMGLRIAQSPQEVMNRTRKEDELGVGRYHGLEHHHHHH | soluble
MTQLWVERTGTRRYIGRSTRGAQVLVGSEDVDGVFTPGELLKIALAACSGMASDQPLARRLGDDYQAVVKVSGAADRDQERYPLIEETMELDLSGLTEDEKERLLVVINRAVELACTVGRTLKSGTTVNLEVVDVGA | not soluble
MTQPLVGKQILIVEDEPVFRSLLDSWFSSLGATTALAGDGVDALELMGRFTPDLMICDIAMPRMNGLKLVENLRNRGDQTPILVISATENMADIAKALRLGVEDVLLKPVKDLNRLRETVFACLYPNMFNSRVEEEERLFRDWDAMVSNPTAAAQLLQELQPPVQQVISHCRINYRQLVSADQPGLVLDIAPLSDNELAFYCLDVTRAGDNGVLAALLLRALFNGLLQDQLGQQKHRLPELGALLKQVNHLLRQANLPGQFPLFVGYYHSELKNLILVSAGLNATLNTGAHQVQISSGVPLGTLGNAYLNQLSQRCDSWQCQIWGAGGRLRLMLSAE | not soluble
MTQPSAPAPQIAIDSHDDKAWRDTLLKVAAILCERQPDSPQGYRLRRHALWQSITSTPQAESDGRTPLAAVSADMVADYQSRLASADMALWQQVEKSVLLAPYWLDGHCLSAQTALRLGYKQVADTIRDEVIRFLERLPQLTGLLFNDRTPFLSEQTKQWLAASPDGKVAPVAQIGEESQAARACFAGQGLEAALRYLDMLPEGDPRDQFHRQYLAAQLTEEAGLIQLAQQQYRMLLMIGSQMMVSDWEPSLLTQLEQKFTAEQ | soluble
MTQTNNRLFDEIGRLMNDAAGAAQGVKREIDGVVRSQAEKILRDLDLVKREEFEAFKEMVRLTREENEALKARIAALEARQGGGSEPPTALA | not soluble
MTQYVFEMGMTCNGCANAARKVLGKLGEDKIKIDDINVETKKITVTTDLPASDVLEALKKTGKEIKQLQ | not soluble
MTRKPLTLTGSALAVLRALVERGPSTRPQLGQDLGLSRPTMSAAMAELMEAGLVEPIGSVQGGMGRRAVEYRVATHAGHVIAVDAGSTHIRLRLSTLDRRLLHASLHPLPNSQYSLTPQISSVVADAVAEALEKTEVDWGPLLAMVIAIPTRVVGPEGDTAATDQEVIFTNFTPPPQVDCTLVNNVNCAAVAEYHYGAARGHQTFAFLQVGVKIGLGLMLNGQILPGVNGAAGEIGHITFPFAPGLTPVPGEAERYIGTEAFMARVRADWPKGSGRPPADTYELLARAGEGDAAALRHVEGHAAEIGAVIAICVSVIDPGLVVLGGGYGASPLLRPKVEEVVRHLAFPAEITTSTLAAEATVLGAERLAVDRAVSVLLGLPA | not soluble
MTRSALKPFKNKRVMVTGRIQRVLFKNYLDRHSTFKPNVRILLKDVFVSGVSIDHLWLYETNKYYALAMELIHQRVKFSANVVPYYKINRNNNLFVQDYGIKRKGRLITEEAYNQNNQYQDKIYEKLPDIDFRLEDFYSKENLEHHHHHH | not soluble
MTRTLASLFGPLQPMALAEDLAAPLLAMPIPEGAADPAAAARAPAAGPTVPDRFTVARGLAVVPVRGILTPNMAQYERWFGWATYHGLAETMAHLAASEDAAAIVLEIDSPGGLVCGIEAAAEAIAAAAAVKPVHALVSPLAASAAYWLASQASEIVMTPGAVAGSIGVALTAAAHVQPGANGAQIFEMSSRHARAKRPDASTEAGRAELQRSLDEAEAAFHAAVSAGRAIPAAELAARLSVTDDPQDGGATFRAPEAIRRGLADRIETRAAFYARLAARTAPKPRSPSRAFAARAAAAAALARS | not soluble
MTSDATHEEAVSLLQELGLKEYEAKCFVGLSRMSSGTAKGLSEVTDVPRTRVYDAVRILEAKGLVEVQHSSPQQFRAVPLSEATETLRDQYEERIERLQSALREMGRIEADNDEAELQEVWSLSGSDAIENRAAAISADATDEVVLVIGSEAVLTEPLIKQLNSLNPNADLIVGTGSASIRDRVEQEIPRATAFLSELDWLHSEMIPEEDAAVGRLLLVDRSTMLVSSINPQTGDEQAIFATGLRNGLIVIARRLLSQGVVEMTPLEQD | not soluble
